Where two headings read alike, the source gives them in different places.
How the values were obtained:
Kir4.1 channel (human) [1] = biological target: Kir4.1 channel (human) (UniProt P78508)
Kir1.1 channel (human) [2] = biological target: Kir1.1 channel (human) (UniProt P48048)
Kir4.1 channel (human) [3] = biological target: Kir4.1 channel (human) (UniProt P78508); remark: listed apart in the source
Kir1.1 channel (human) [4] = biological target: Kir1.1 channel (human) (UniProt P48048); remark: listed apart in the source

Chain of UniProt P78508 (P78508 whole entry): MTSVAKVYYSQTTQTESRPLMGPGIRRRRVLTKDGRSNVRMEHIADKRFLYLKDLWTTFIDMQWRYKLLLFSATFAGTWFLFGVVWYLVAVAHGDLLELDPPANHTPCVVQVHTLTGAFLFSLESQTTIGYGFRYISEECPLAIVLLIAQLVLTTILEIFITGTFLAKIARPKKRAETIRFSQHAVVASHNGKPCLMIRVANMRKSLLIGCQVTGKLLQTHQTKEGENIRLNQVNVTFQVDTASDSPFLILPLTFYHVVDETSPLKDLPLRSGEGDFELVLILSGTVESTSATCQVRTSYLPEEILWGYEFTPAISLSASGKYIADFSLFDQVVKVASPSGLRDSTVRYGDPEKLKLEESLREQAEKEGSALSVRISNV
Chain of UniProt P48048 (P48048 whole entry): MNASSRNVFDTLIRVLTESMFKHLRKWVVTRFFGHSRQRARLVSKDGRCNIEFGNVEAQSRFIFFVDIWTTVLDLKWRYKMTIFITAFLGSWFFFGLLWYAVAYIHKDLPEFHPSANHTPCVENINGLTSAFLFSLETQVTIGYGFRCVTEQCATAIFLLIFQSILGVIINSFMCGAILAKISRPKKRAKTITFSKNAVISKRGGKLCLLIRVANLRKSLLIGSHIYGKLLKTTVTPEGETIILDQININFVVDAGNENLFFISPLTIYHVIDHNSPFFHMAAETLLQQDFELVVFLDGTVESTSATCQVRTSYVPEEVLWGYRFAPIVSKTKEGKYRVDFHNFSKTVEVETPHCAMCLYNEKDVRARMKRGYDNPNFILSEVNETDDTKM

Substance	IC50 of inhibition of Kir4.1 currents at −40 mV, whole-cell patch clamp, HEK293T (Kir4.1 channel (human) [1])	IC50 of inhibition of Kir1.1 currents at −40 mV, whole-cell patch clamp, HEK293T (Kir1.1 channel (human) [2])	IC50 of inhibition of Kir4.1 currents at −40 mV, whole-cell patch clamp, HEK293T (Kir4.1 channel (human) [3])	IC50 of inhibition of Kir1.1 currents at −40 mV, whole-cell patch clamp, HEK293T (Kir1.1 channel (human) [4])
native SsTx-4 (peptide)	6200 nM	210 nM	–	–
recombinant SsTx-4 (peptide)	–	–	5600 nM	60.4 nM
